This note sets out measurements from patent publication US11161908.

In this experiment the target is human BAFF-R-GFP fusion protein expressed on the surface of mouse fibroblast (L) cells, clone D2C (human) (UniProt Q96RJ3). Description: cell ELISA of hybridoma supernatant on (h)BAFF-R-expressing cells, anti-mouse IgG-HRP; same clone on parental L cell: 0.102.

B1: mouse monoclonal antibody from hybridoma Clone 55 (antibody, V domains shown)
VH: QVTLKESGPGILKPSQTLSLTCSFSGFSLSTSGMGVGWIRQPSGKGLEWLAHIWWDDDKYYNSSLKSHLTISKDTSRNQVFLKITSVDTADTATYYCARSFGYGLDYWGQGTTLTVSS
VL: DIQMTQTTSSLSASLGDRVTISCSASQDISNYLNWYQQKPDGTVKLLIYYTSSLHSGVPSRFSGSGSGTDYSLTISSLEPEDIATYYCHQFSELPWTFGGGTKLEIK
Consider B1, for which the OD 450 nm is 1.07 OD 450 nm.
